Experimental data taken from patent US20090325867A1, “RECEPTOR-SPECIFIC TUMOUR NECROSIS FACTOR-RELATED APOPTOSIS-INDUCING LIGAND (TRAIL) VARIANTS” (MEDICAL RESEARCH COUNCIL, priority 2005, published 2009).

Columns and labels:
[1] = target: TRAIL receptor 2 (TRAIL-R2) (Homo sapiens (Human)) (UniProt O14763)
Ramos cells = test: Apoptosis by phosphatidylserine (PS) externalization in Ramos cells; format: cell-based; settings: for ability to induce apoptosis in Ramos cells (in words): PS externalization, compared with wt TRAIL
primary MCL cells = test: Apoptosis in freshly isolated primary MCL cells with or without depsipeptide pre-treatment; format: cell-based, human; settings: pre-treatment 16 h with depsipeptide (5 nM), depsipeptide alone 35.4±5%
Procedure: Cell lines were also pre-incubated for 30 min with a TRAIL-R1 blocking Ab and a TRAIL-R2 neutralizing Ab from Alexis and R&D systems, respectively, prior to exposure to TRAIL. Freshly isolated cells from patients with MCL were isolated, purified and incubated with different forms of TRAIL as described above for CLL cells. Samples were either analyzed immediately for apoptosis or stored at −80° C. for subsequent Western blotting. Other methods and reagents were as described (Inoue (2004 Cell Death Differ 11 Suppl 2, S193-206); MacFarlane et al., 2005 ibid).
(§1) Apoptosis was quantified by phosphatidylserine (PS) externalization in the presence of propidium iodide as described (MacFarlane et al., 2002 ibid.). Samples for Western blot analysis were prepared and caspase processing detected as described (Inoue et al., 2004 ibid.; MacFarlane et al., 2005 ibid.).
We also obtained three samples from patients with mantle cell lymphoma (MCL), an incurable and aggressive disease that accounts for ˜6% of all non-Hodgkin's lymphoma. There are no standard treatments for MCL and the prognosis is very poor particularly for the blastoid variant. MCL cells were isolated and exposed to the different forms of TRAIL after pre-treatment for 16 h with depsipeptide (5 nM).

TRAIL-R1 (DR4) = target: T1, TRAIL-R1 (DR4) (Homo sapiens, UniProt O00220); test: TRAIL-R1 selective apoptotic signalling (Ramos versus Jurkat cells); format: cell-based; settings: from apoptosis in Ramos (TRAIL-R1) and Jurkat (TRAIL-R2) cells
T1 construct: Ramos and Jurkat cells, which signal predominantly through TRAIL-R1 and TRAIL-R2, respectively; endogenous in cells; host or cells: Ramos cells (Jurkat cells as TRAIL-R2 comparison)
Text: Another test involves the assay of the effect in R1- (DR4-) only cells. This is the preferred test for DR4 selectivity as discussed herein. Preferably the ligand is applied to an R1-only signalling cell. Preferably the cell is a Ramos cell. Preferably the read-out is functional activity, preferably death-inducing activity (apoptosis). This is crucial to the test—mere binding is not as robust an indicator as functional induction of death. Thus, preferably a DR4 selective ligand according to the present invention induces death in a DR4 only signalling cell, such as a Ramos cell.
Ramos, an Epstein-Barr virus-negative Burkitt's lymphoma cell line, and Jurkat T cells (clone E6-1) were cultured as described (MacFarlane et al (2005 Cell Death and Differentiation vol 12 pages 773-782)). Blood samples were obtained from CLL patients, with patient consent and local ethical committee approval and CLL cells purified as described (MacFarlane et al (2002 Oncogene 21, 6809-6818). Cells were incubated for 16 h with depsipeptide (10 nM), provided by Dr. E. Sausville (NCI, USA). Cells were then cultured for a further 6 h with either HGSETR1 or HGS-ETR2, agonistic mAbs to TRAIL-R1 or -R2, respectively (Human Genome Sciences, Rockville, Md.), His-TRAIL-LE (a recombinant TRAIL with low endotoxin—Alexis Corporation, Nottingham, UK), His-TRAIL, a similar form of human recombinant TRAIL (MacFarlane et al (1997 J Biol Chem 272, 25417-25420)) but not further purified to reduce endotoxin levels or a mutant form of His-TRAIL as described (MacFarlane et al., 2005 ibid.). Cell lines were also pre-incubated for 30 min with a TRAIL-R1 blocking Ab and a TRAIL-R2 neutralizing Ab from Alexis and R&D systems, respectively, prior to exposure to TRAIL. Freshly isolated cells from patients with MCL were isolated, purified and incubated with different forms of TRAIL as described above for CLL cells. Samples were either analyzed immediately for apoptosis or stored at −80° C. for subsequent Western blotting. Other methods and reagents were as described (Inoue (2004 Cell Death Differ 11 Suppl 2, S193-206); MacFarlane et al., 2005 ibid).
as §1
Referring to FIG. 4: Ramos cells (A) and Jurkat cells (B) were cultured with increasing concentrations of Arg191Leu or Asn199Val single mutants of His-TRAIL ([…]) or His-TRAIL (500 ng/ml), ETR1 or ETR2 (1000 ng/ml) for 4 h. Apoptosis was quantified by measuring the % PS+ cells and results shown in FIG. 4 are the Mean±SEM of three independent experiments. Thus the biological importance TRAIL residues R191 and N199 in TRAIL-R1 selectivity is shown.

Row | Molecule | apoptosis of primary MCL cells after depsipeptide (5 nM, 16 h) [1] | ability to induce apoptosis in Ramos cells (in words) (Ramos cells) | apoptosis, ligand or antibody after depsipeptide pre-treatment (primary MCL cells) | inhibition of ligand-induced apoptosis by receptor blocking antibodies (Ramos cells; 30 min pre-incubation with TRAIL-R1 blocking Ab or TRAIL-R2 neutralizing Ab (5 μg ml^−1)) | concentration-response of apoptosis compared with wt TRAIL (Ramos cells; 4 h, FIG. 1B) | % PS+ cells, Ramos (Ramos cells; 4 h exposure, 500 ng ml^−, Mean ± SEM of at least three determinations) | receptor selectivity of apoptotic activity (in words) (TRAIL-R1 (DR4))
1 | HGS-ETR2 (antibody, INN chains, looked up, V domains shown) VH: EVQLVQSGGGVERPGGSLRLSCAASGFTFDDYGMSWVRQAPGKGLEWVSGINWNGGSTGYADSVKGRVTISRDNAKNSLYLQMNSLRAEDTAVYYCAKILGAGRGWYFDLWGKGTTVTVSS VL: SSELTQDPAVSVALGQTVRITCQGDSLRSYYASWYQQKPGQAPVLVIYGKNNRPSGIPDRFSGSSSGNTASLTITGAQAEDEADYYCNSRDSSGNHVVFGGGTKLTVL | 38.3% | not in Ramos cells | 38.3±4.3% |  |  |  | 
2 | TRAIL.R1-5: 6His TRAIL 95-281 with 193Ser, 199Val, 201Arg, 213Trp and 215Asp (protein, biotin (site not stated) in the DISC analysis only; not biotinylated in the apoptosis assays, 6His TRAIL 95-281 with 193Ser, 199Val, 201Arg, 213Trp and 215Asp) TSEETISTVQEKQQNISPLVRERGPQRVAAHITGTRGRSNTLSSPNSKNEKALGRKINSWESSRSGHSFLSNLHLRNGELVIHEKGFYYIYSQTYFRFSEEIKEVTRNDKQMVQYIYKWTDYPDPILLMKSARNSCWSKDAEYGLYSIYQGGIFELKENDRIFVSVTNEHLIDMDHEASFFGAFLVG |  | retained most of the activity of wt TRAIL | 54.3±9.1% | blocking antibody specific to TRAIL-R1 but not to TRAIL-R2 to inhibit apoptosis | very similar concentration-response to wt TRAIL | 35.9 ± 6.4% | R1 selective apoptotic activity
